Patent US20050048073A1, “Methods of determining west nile virus epitopes and method of using the same” (priority 2001, published 2005)
“And” between values parts separate entries of the source, which are not always exact repeats. Equal entries are not always repeated.

Assays:
[1] = molecular target: HLA B*07 (Homo sapiens, UniProt P01889); assay: T2B7 binding assay (stabilization of HLA B*07 on TAP-deficient T2 cells, FACS); conditions: for Avg. Fold Inc. @ 200: fold increase over background; for Avg. Fold Inc. @ 200 / Avg. MFI 200: peptide at 200 ug/ml; for Avg. MFI 200: mean fluorescence index; for Binding number (binding score): numerical sum of all the positive assays; for Binding strength: rated strong, moderate, weak or none by number of significantly positive wells
Experimental: Triplicate wells of peptide at 10, 20, 200 ug/ml were evaluated in each of the T2 B7 binding assays; each assay was repeated 4 times. […] The “binding score” column provides the numerical sum of all the positive assays in the binding summary column.
The T2B7 binding assay method is well described in the literature and operational in the laboratory. This assay relies on the ability of exogenously added peptides to stabilize the class I MHC/beta 2 microglobulin structure on the surface of transporters associated with antigen processing (TAP)-deficient cell lines. Briefly, HLA B*07 T2 cell lines were prepared by incubating overnight (16 hours) at 26° C. Just prior to the binding assay these cells were washed twice in serum-free media. Solutions of the test peptides at three concentrations (final concentration of 10, 20, and 200 ug/ml in RPMI 1640 (Sigma, St. Louis, Mo.)) were plated in triplicate wells of a 96 well, round-bottom assay plate (Beckton Dickinson, Lincoln Park, N.J.). Sixteen wells containing cells without peptide were included in each plate, serving as the no-peptide control (background control) for the assay.
100,000 cells were added to each well, and the plates were then incubated for four hours at 37° C., 5% CO2 The plates were then spun at 110×g for 10 minutes at 4° C., supernatant is discarded and the remaining cells are re-suspended. One hundred uL of diluted primary antibody-containing hybridoma supernatant (1:10 dilution of ME1 supernatant produced by HB-119 cell line from ATCC) in staining buffer (PBS, 5% FBS, 0.1% sodium azide) was added to all of the wells except 8 wells per assay plate (each containing 200 ug/ml of one study peptide, these wells served as controls for non-specific binding of secondary antibody). Primary antibody was incubated with the peptide-pulsed cells for 30 minutes at 4° C. After washing three times, the cells were re-suspended, and 100 uL of a 1:250 dilution of FITC-labeled secondary antibody (FITC labeled Goat F(ab′)2 Anti-mouse IgG (H+L) from Caltag) in staining buffer were added to all wells. The plates were incubated for 30 minutes at 4° C., and subsequently washed three times. The contents of each well were then resuspended in 200 uL of fixing buffer (PBS, 1% paraformaldehyde), and aliquoted into FACS tubes.
The 16 negative control wells in each plate contained no peptide but did contain cells, primary antibody and secondary antibody. An additional set of triplicate wells was plated with peptide at the highest concentration (200 ug/ml), but no primary antibody was added to the wells to control for non-specific secondary antibody binding. One positive control peptide (the known B*07 binder) was tested at three concentrations (in triplicate wells) in each assay plate.
Following fixing, the presence of fluorescent secondary antibody on the surface of T2 cells (gated to the appropriate cell size) was measured at 488 nm on a FACScan flow cytometer (Becton-Dickinson, New Jersey). The mean linear fluorescence […] of 10,000 events was measured and compared to the background fluorescence of cells plated in (no peptide) control wells. A positive response was defined as a 10% increase over baseline MLF and p<0.05, in more than one concentration in each of four assays. The assays are repeated 4 times for each concentration of peptide. Each peptide was tested in a total of 36 wells (triplicate wells, three concentrations, four assays).

[2] = molecular target: HLA B*07 (human); assay: T2B7 HLA stabilisation assay, flow cytometry, 10/20/200 ug/ml, four assays; conditions: for Binding results (total of four assays): scale: of 3 concentrations positive
[3] = molecular target: HLA B*07 (human); assay: T2B7 HLA stabilisation assay, flow cytometry, peptide at 200 ug/ml

| Molecule | Avg. Fold Inc. @ 200 [1] | Avg. MFI 200 [1] | Binding number (binding score) [1] | Binding strength [1] | other results |
| --- | --- | --- | --- | --- | --- |
| SPHRVPNYNL [WNB7 020] | 2.5 | 1607.9 | 12 | strong (stabilized HLA B7 on the surface of T2B7 cells at more than two concentrations in all four replicate assays, receiving a total binding score of 10, 11, 11, 12, and 12) | affinity to B*07 in vitro compared with previously published B*07 epitope GPGHKARVLA (from HIV-1) [1]: much greater affinity |
| PFPESNSPIS [WNVB7 3411] | 1.0 | 626.7 | 1 | non-binder (did not bind (binding score of 2)) | stabilization of HLA B*07 on the surface of T2B7 cells [1]: did not stabilize T2B7 to a significant degree |
| RPRWIDARVY [WNB7 017] | 1.9 | 1714.0 | 11 | strong (stabilized HLA B7 on the surface of T2B7 cells at more than two concentrations in all four replicate assays, receiving a total binding score of 10, 11, 11, 12, and 12) | affinity to B*07 in vitro compared with previously published B*07 epitope GPGHKARVLA (from HIV-1) [1]: much greater affinity |
| TPGLRCLNLD [WNB7 024] | 1.0 | 849.6 | 2 | non-binder (did not bind (binding score of 2)) |  |
| VPGTKIAGML [WNB7 018] | 1.7 | 1088.4 |  |  | Binding number (binding score) ([1]; listed as WNVB7 0018): 6; Binding strength ([1]; listed as WNVB7 0018): moderate (stabilized HLA B*07 to a moderate degree (receiving binding scores of 6 to 8)) |
| VPCRGQDELV [WNB7 010] | 1.0 | 658.6 | 4 | weak (weak binders (binding score of 4)) |  |
| EPPEGVKYVL [WNB7 013] | 1.1 | 681.7 |  |  | Binding number (binding score) ([1]; listed as WNVB7 0013): 6; Binding strength ([1]; listed as WNVB7 0013): moderate (stabilized HLA B*07 to a moderate degree (receiving binding scores of 6 to 8)) |
| KPTGSASSLV [WNB7 015] | 1.7 | 1070.2 |  |  | Binding number (binding score) ([1]; listed as WNVB7 0015): 6; Binding strength ([1]; listed as WNVB7 0015): moderate (stabilized HLA B*07 to a moderate degree (receiving binding scores of 6 to 8)) |
| IPAGFEPEML [WNB7 008] | 1.9 | 1207.4 | 10 | strong (stabilized HLA B7 on the surface of T2B7 cells at more than two concentrations in all four replicate assays, receiving a total binding score of 10, 11, 11, 12, and 12) | affinity to B*07 in vitro compared with previously published B*07 epitope GPGHKARVLA (from HIV-1) [1]: much greater affinity |
| PETPQGLAKI [WNVB7 3403] | 1.0 | 588.9 | 0 | non-binder (did not bind (binding score of 2)) | stabilization of HLA B*07 on the surface of T2B7 cells [1]: did not stabilize T2B7 to a significant degree |
| NPMILAAGLI [WNB7 007] | 1.1 | 944.6 | 2 | non-binder (did not bind (binding score of 2)) |  |
| PRTNTILEDN [WNVB7 3415] | 0.9 | 778.6 | 0 | non-binder (did not bind (binding score of 2)) | stabilization of HLA B*07 on the surface of T2B7 cells [1]: did not stabilize T2B7 to a significant degree |
| PEDIDCWCTK [WNVB7 3399] | 1.1 | 990.3 | 1 | non-binder (did not bind (binding score of 2)) | stabilization of HLA B*07 on the surface of T2B7 cells [1]: did not stabilize T2B7 to a significant degree |
| RPQRHDEKTL [WNB7 019] | 2.8 | 1644.6 | 11 | strong (stabilized HLA B7 on the surface of T2B7 cells at more than two concentrations in all four replicate assays, receiving a total binding score of 10, 11, 11, 12, and 12) | affinity to B*07 in vitro compared with previously published B*07 epitope GPGHKARVLA (from HIV-1) [1]: much greater affinity |
| TPAAPSYTLK [WNB7 009] | 1.5 | 954.5 |  |  | Binding number (binding score) ([1]; listed as WNVB7 0009): 8; Binding strength ([1]; listed as WNVB7 0009): moderate (stabilized HLA B*07 to a moderate degree (receiving binding scores of 6 to 8)) |
| APAYSFNCLG [WNB7 005] | 1.2 | 743.5 |  |  | Binding number (binding score) ([1]; listed as 0005): 8; Binding number (binding score) ([1]; listed as WNVB7 0005): 8; Binding strength ([1]; listed as WNVB7 0005): moderate (stabilized HLA B*07 to a moderate degree (receiving binding scores of 6 to 8)) |
| GPGHKARVLA [HIV-1 B7 1291, reference compound] | 2.2 and 1.5 and 1.6 | 1423.8 and 1370.9 and 1003.9 | 8 and 9 | moderate (stabilized HLA B*07 to a moderate degree (receiving binding scores of 6 to 8)) | Binding number (binding score) ([1]; listed as WC 1291): eight to nine; Binding strength ([1]; listed as WC 1291): moderately well |
| RPAADGRTVM [WNB7 023] | 1.5 | 979.1 | 12 | strong (stabilized HLA B7 on the surface of T2B7 cells at more than two concentrations in all four replicate assays, receiving a total binding score of 10, 11, 11, 12, and 12) | affinity to B*07 in vitro compared with previously published B*07 epitope GPGHKARVLA (from HIV-1) [1]: much greater affinity |
| GPGHEEPQLV [WNB7 011] | 1.0 | 848.9 | 2 | non-binder (did not bind (binding score of 2)) |  |
| AVKDELNTLL [WNB7 004] | 1.0 | 842.5 | 0 | non-binder (did not bind (binding score of 2)) |  |
| NPMILAAGLI [WNVB7 0007] |  |  |  |  | Binding number (binding score) [2]: 2; Binding results (total of four assays) ([2]; in 2 assays): 1; Avg. Fold Inc. @ 200 (fold over background) [3]: 1.1; Avg. MFI 200 [3]: 945 MFI |
| PRTNTILEDN [WNVB7 3415] |  |  |  |  | Binding number (binding score) [2]: 0; Binding results (total of four assays) ([2]; in 4 assays): 0; Avg. Fold Inc. @ 200 (fold over background) [3]: 0.9; Avg. MFI 200 [3]: 779 MFI |
| AVKDELNTLL [WNVB7 0004] |  |  |  |  | Binding number (binding score) [2]: 0; Binding results (total of four assays) ([2]; in 4 assays): 0; Avg. Fold Inc. @ 200 (fold over background) [3]: 1; Avg. MFI 200 [3]: 842 MFI |
| AAKKKGASLL [WNVB7 0006] |  |  |  |  | Binding number (binding score) [2]: 4; Binding results (total of four assays) ([2]; in 4 assays): 1; Avg. Fold Inc. @ 200 (fold over background) [3]: 1.2; Avg. MFI 200 [3]: 708 MFI |
| PFPESNSPIS [WNVB7 3411] |  |  |  |  | Binding number (binding score) [2]: 1; Binding results (total of four assays) (of 3 concentrations positive, in 1 assay) [2]: 1; Avg. Fold Inc. @ 200 (fold over background) [3]: 1; Avg. MFI 200 [3]: 627 MFI |
